Test results from patent publication US7514207B2, “Methods of screening for compounds that decrease phosphorylation of merlin and may be useful in cancer treatment” (Massachusetts Institute of Technology, priority 2001, dated 2009).

How the values were obtained:
[1] = test system: merlin kinase; test: In-vitro merlin kinase assay with kinase inhibitors; format: biochemical; conditions: for concentration range inhibiting the merlin kinase: inhibition of the activity of the merlin kinase
[2] = target: T1, GST-merlin pseudo-substrate (residues 478-535 of merlin fused to glutathione-S-transferase), P35240
T1 chain: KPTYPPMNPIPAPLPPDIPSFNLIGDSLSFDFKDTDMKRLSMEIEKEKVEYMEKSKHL

[3] = target: merlin expressed from an inducible allele in the RT4-D6P2T cell line
[4] = test system: phosphorylation of merlin induced by activated Rac or cdc42; test: In-vivo merlin phosphorylation in co-transfected NIH3T3 cells (western blot); format: cell-based; conditions: NIH3T3 cells co-transfected with merlin, activated Rac or cdc42 and the PAK2 AID
Experimental: In the in-vitro kinase assays where full-length merlin was used, cells transfected with merlin expression vectors were extracted, and merlin was immunoprecipitated using a commercially available antibody SC-331 (Santa Cruz) and Protein A-agarose beads. In the in-vivo studies, cells were transfected with various expression vectors and harvested after 48 hours into SDS-boiling buffer (10 mM Tris pH 7.5, 50 mM NaF, and 1% SDS). Cells were scraped off the plates and boiled for 5′. Protein concentration was determined by the BCA method (Pierce) and resolved by 9% SDS-PAGE and western blot analysis.
The inhibitory fragment in PAK2 resides between residues 82-146 (equivalent to the 83-149 AID of PAK1). […] To further investigate the role of PAK2 in induction of merlin phosphorylation, the ability of the AID to inhibit this activity was assessed. NIH3T3 cells were co-transfected with expression vectors for merlin, activated Rac, or cdc42 and the PAK2 AID.

For `NCCNS(=O)(=O)c1cccc2cnccc12` [H9], the “concentration up to which no effect on the merlin kinase was seen” value ([1]; no effect up to this concentration) was greater than 1 mM.

`COC(=O)[C@@]1(O)C[C@H]2O[C@]1(C)n1c3ccccc3c3c4c(c5c6ccccc6n2c5c31)C(=O)NC4` [K252a] was tested, and the “concentration range inhibiting the merlin kinase” value [1] was “mM range”.

For `CCCCCCOC(=O)[C@]1(O)C[C@@H]2O[C@@]1(C)n1c3ccccc3c3c4c(c5c6ccccc6n2c5c31)C(=O)NC4` [K-5720], the “concentration range inhibiting the merlin kinase” value [1] was “mM range”.

B1: PAK2 of NIH3T3 cell extracts (endogenous) (protein)
chain: SDNGELEDKPPAPPVRMSSTIFSTGGKDPLSANHSLKPLPSVPEEKKPRNKIISIFSGTEKGSKKKEKERPEISPPSDFEHTIHVGFDAVTGEFTGMPEQWARLLQTSNITKLEQKKNPQAVLDVLKFYDSNTVKQKYLSFTPPEKDGFPSGTPALNTKGSETSAVVTEEDDDDEDAAPPVIAPRPDHTKSIYTRSVIDPIPAPVGDSNVDSGAKSSDKQKKKAKMTDEEIMEKLRTIVSIGDPKKKYTRYEKIGQGASGTVFTATDVALGQEVAIKQINLQKQPKKELIINEILVMKELKNPNIVNFLDSYLVGDELFVVMEYLAGGSLTDVVTETCMDEAQIAAVCRECLQALEFLHANQVIHRDIKSDNVLLGMEGSVKLTDFGFCAQITPEQSKRSTMVGTPYWMAPEVVTRKAYGPKVDIWSLGIMAIEMVEGEPPYLNENPLRALYLIATNGTPELQNPEKLSPIFRDFLNRCLEMDVEKRGSAKELLQHPFLKLAKPLSSLTPLILAAKEAMKSNR
B1 was tested, and the “kinase activity on the GST-merlin substrate after immunodepletion of PAK2” value [2] was “extracts immunodepleted for PAK2 (+PAK2 Ab) had a 2-3 fold reduction in kinase activity”.

B2: endogenous PAK1 of RT4 cells (protein)
chain: SNNGLDVQDKPPAPPMRNTSTMIGAGSKDPGTLNHGSKPLPPNPEEKKKKDRFYRSILAGDKTNKKKEKERPEISLPSDFEHTIHVGFDAVTGEFTGMPEQWARLLQTSNITKSEQKKNPQAVLDVLEFYNSKKTSNSQKYMSFTDKSAEDYNSSNTLNVKTVSETPAVPPVSEDEDDDDDATPPPVIAPRPEHTKSVYTRSVIEPLPVTPTRDVATSPISPTENNTTPPDALTRNTEKQKKKPKMSDEEILEKLRSIVSVGDPKKKYTRFEKIGQGASGTVYTAMDVATGQEVAIKQMNLQQQPKKELIINEILVMRENKNPNIVNYLDSYLVGDELWVVMEYLAGGSLTDVVTETCMDEGQIAAVCRECLQALEFLHSNQVIHRDIKSDNILLGMDGSVKLTDFGFCAQITPEQSKRSTMVGTPYWMAPEVVTRKAYGPKVDIWSLGIMAIEMIEGEPPYLNENPLRALYLIATNGTPELQNPEKLSAIFRDFLNRCLEMDVEKRGSAKELLQHQFLKIAKPLSSLTPLIAAAKEATKNNH
In the case of B2, the “phosphorylation status (activation) of PAK1 by 2-dimensional protein analysis” value [3] is reported as “The basal levels of activated PAK1 were reduced under conditions of high merlin expression compared to conditions of low merlin expression”.

B3: PAK2 wild-type (transfected) (protein)
chain: MSDNGELEDKPPAPPVRMSSTIFSTGGKDPLSANHSLKPLPSVPEEKKPRHKIISIFSGTEKGSKKKEKERPEISPPSDFEHTIHVGFDAVTGEFTGMPEQWARLLQTSNITKLEQKKNPQAVLDVLKFYDSNTVKQKYLSFTPPEKDGFPSGTPALNAKGTEAPAVVTEEEDDDEETAPPVIAPRPDHTKSIYTRSVIDPVPAPVGDSHVDGAAKSLDKQKKKTKMTDEEIMEKLRTIVSIGDPKKKYTRYEKIGQGASGTVFTATDVALGQEVAIKQINLQKQPKKELIINEILVMKELKNPNIVNFLDSYLVGDELFVVMEYLAGGSLTDVVTETCMDEAQIAAVCRECLQALEFLHANQVIHRDIKSDNVLLGMEGSVKLTDFGFCAQITPEQSKRSTMVGTPYWMAPEVVTRKAYGPKVDIWSLGIMAIEMVEGEPPYLNENPLRALYLIATNGTPELQNPEKLSPIFRDFLNRCLEMDVEKRGSAKELLQHPFLKLAKPLSSLTPLIMAAKEAMKSNR
In the case of B3, the “phosphorylation of the pseudo-substrate in an in-vitro kinase assay” value (“phosphorylation of the pseudo-substrate” for short) [2] is reported as “Only extracts from cells transfected with PAK2 and PAK3 were able to effectively phosphorylate the pseudo-substrate”.

B4: PAK3 (transfected) (protein)
chain: MSDGLDNEEKPPAPPLRMNSNNRDSSALNHSSKPLPMAPEEKNKKARLRSIFPGGGDKTNKKKEKERPEISLPSDFEHTIHVGFDAVTGEFTGIPEQWARLLQTSNITKLEQKKNPQAVLDVLKFYDSKETVNNQKYMSFTSGDKSAHGYIAAHPSSTKTASEPPLAPPVSEEEDEEEEEEEDENEPPPVIAPRPEHTKSIYTRSVVESIASPAVPNKEVTPPSAENANSSTLYRNTDRQRKKSKMTDEEILEKLRSIVSVGDPKKKYTRFEKIGQGASGTVYTALDIATGQEVAIKQMNLQQQPKKELIINEILVMRENKNPNIVNYLDSYLVGDELWVVMEYLAGGSLTDVVTETCMDEGQIAAVCRECLQALDFLHSNQVIHRDIKSDNILLGMDGSVKLTDFGFCAQITPEQSKRSTMVGTPYWMAPEVVTRKAYGPKVDIWSLGIMAIEMVEGEPPYLNENPLRALYLIATNGTPELQNPERLSAVFRDFLNRCLEMDVDRRGSAKELLQHPFLKLAKPLSSLTPLIIAAKEAIKNSSR
With B4 the “phosphorylation of the pseudo-substrate” value [2] was “Only extracts from cells transfected with PAK2 and PAK3 were able to effectively phosphorylate the pseudo-substrate”.

B5: PAK1 (transfected) (protein)
chain: MSNNGLDIQDKPPAPPMRNTSTMIGAGSKDAGTLNHGSKPLPPNPEEKKKKDRFYRSILPGDKTNKKKEKERPEISLPSDFEHTIHVGFDAVTGEFTGMPEQWARLLQTSNITKSEQKKNPQAVLDVLEFYNSKKTSNSQKYMSFTDKSAEDYNSSNALNVKAVSETPAVPPVSEDEDDDDDDATPPPVIAPRPEHTKSVYTRSVIEPLPVTPTRDVATSPISPTENNTTPPDALTRNTEKQKKKPKMSDEEILEKLRSIVSVGDPKKKYTRFEKIGQGASGTVYTAMDVATGQEVAIKQMNLQQQPKKELIINEILVMRENKNPNIVNYLDSYLVGDELWVVMEYLAGGSLTDVVTETCMDEGQIAAVCRECLQALEFLHSNQVIHRDIKSDNILLGMDGSVKLTDFGFCAQITPEQSKRSTMVGTPYWMAPEVVTRKAYGPKVDIWSLGIMAIEMIEGEPPYLNENPLRALYLIATNGTPELQNPEKLSAIFRDFLNRCLEMDVEKRGSAKELLQHQFLKIAKPLSSLTPLIAAAKEATKNNH
For B5, the “phosphorylation of the pseudo-substrate” value [2] was “Other kinases, which are known effectors of cdc42/Rac, including PAK1, LIM-kinase and JNK, did not induce phosphorylation of merlin in these assays”.

B6: PAK2 AID: auto-inhibitory domain of PAK2, residues 82-146, expressed from pcDNA3; dominant negative fragment (protein)
chain: HTIHVGFDAVTGEFTGMPEQWARLLQTSNITKLEQKKNPQAVLDVLKFYDSNTVKQKYLSFTPPE
With B6 the “decrease in the ratio of hyper-phosphorylated to hypo-phosphorylated merlin” value [4] was 3-4 fold.
